Laboratory results taken from patent publication US20170275344A1, “POLYPEPTIDES AND USES THEREOF AS A DRUG FOR TREATMENT OF AUTOIMMUNE DISORDERS” (Compugen Ltd., priority 2014, published 2017).

What was measured:
Type in all cases: in vivo, mouse
[1] = tested on: SJL/J mice; experiment: Trafficking of transferred PLP139-151 sensitized cells into the CNS (flow cytometry)
Procedure: PLP139-151 sensitized cells were generated as described in Materials and Methods (cell counts in the reactivation culture are presented in Table 2) and labeled with PBSE (4 uM) before transfer to naïve mice. In study “Cgen data” (FIG. 12), disease was induced in recipient mice (n=10 per group) by i.v. transfer of 5×10^6 blast cells to each recipient mouse. A relatively large number of transferred cells were used in order to allow detection of the transferred cells by flow cytometry analysis at the end of the study. Mice were split into Control Ig and C1ORF32 ECD-Fc (SEQ ID NO:42) treatment groups, receiving 100 ug/dose intraperitoneal injection three times per week for 2 weeks. On Day +14 after cell transfer, 5 representative mice from each group were selected for analysis of trafficking of transferred cells into the CNS. Spleens, cervical lymph nodes, and CNS were collected, and the number of PBSE- or PBSE+/CD45+/CD3+/CD4+ T cells was analyzed by flow cytometric analysis.
An additional experiment (designated “MYC48 FACS”, FIG. 13) was performed using an alternative staining follow-up approach. SJL-Actin/GFP mice were primed with PLP139-151/CFA, and sensitized blast cells were generated as described in Materials and Methods (cell counts in the reactivation culture are presented in Table 2). On Day +3 of culture, PLP139-151 sensitized cells were collected and labeled with PBSE (4 uM). Disease was induced in the recipient mice (n=10 per group), by i.v. transfer of 5×10^6 blast cells/mouse. Beginning at the time of cell transfer, mice were treated with Control Ig or C1ORF32 ECD-Fc (SEQ ID NO:42) (100 ug/dose i.p. three times per week for 2 weeks). […] To evaluate C1ORF32 ECD-Fc (SEQ ID NO:42) effect on immune cell trafficking to the CNS, spleens, cervical lymph nodes, and CNS cells collected form 5 mice on day +10 post cell transfer, and the number of transferred CD45hi PBSE+ or GFP+ cells was analyzed by flow cytometry. […]

[2] = tested on: SJL/J mice; experiment: T cell and Treg counts in spleen and CNS, day 44 of EAE with IL-10 or TGFb blockade (FACS)
Source text: On day 44 post disease induction, the rest of the mice were sacrificed and spleens and CNS were taken for cell counts and cell population analysis as described below.
2. The spleens and CNS were collected.
4. Experimental stains (CD45, CD3, CD4, CD25, FoxP3, Nrp-1, and Helios)
9. Gating scheme for flow: Singlets (FSC-A vs. FSC-H)->Cells (SSC-A vs. FSC-A)->Live (VID stain negative cells)->CD45hi->CD3/CD4+->CD25/FoxP3+->Helios/Nrp-1

[3] = tested on: healthy human skin transplanted onto beige-SCID mice; experiment: Humanized psoriasis model: healthy human skin xenotransplants on beige-SCID mice injected with psoriatic patients' PBMCs; settings: IHC, vs PBS treated group
Source text: In this model, psoriasis is induced in xenotransplants of healthy human skin transplanted onto beige severe combined immunodeficiency (SCID) mice followed by intradermal (i.d.) injection of IL-2 enriched Peripheral Blood Mononuclear Cells (PBMCs) isolated from blood of psoriasis patients (Nickoloff, 1995; Wrone-Smith, 1996 Gilhar et al., 2002, 2006, 2011). The activity of these compounds was compared to that of Enbrel, a TNF inhibitor which is an approved biological drug for treatment of psoriasis. As a control for model robustness, we used dexamethasone, a steroid with suppressive effects on inflammatory cytokines and chemokines such as TNF-alpha and interferon-gamma which cause severe psoriasis. All treatments were administered intradermally, except for dexamethasone which was given topically.
Study Protocol: A) Healthy human skin pieces with a width of 0.4 mm and surface area of 1.5×1.5 cm were provided from residual skin of routine plastic surgery procedures from the Plastic Surgery Department of the Rambam Medical Center, Israel. In addition, 20 mL blood samples were taken from psoriatic patients. B) Seventy (70) beige-severe combined immunodeficient mice (SCID) (weight˜20-25 g) were included in this study. Normal healthy human donor skin was transplanted onto the beige-SCID mice as previously described (Nickoloff et al., 1995; Wrone-Smith, 1996; Gilhar et al., 2002, 2006, 2011; Kalish et al., 2009) and the mice were divided into 7 groups. C) Peripheral Blood Mononuclear Cells (PBMCs) isolated from psoriatic patients' blood were cultured in the presence of IL-2 [Prospec, 100 U/mL of RPMI 1640 media, 10% human AB serum (Sigma, St. Louis, Mo.), 1% glutamine, 1% antibiotics (media components; Biological Industries, Kibbutz Beit Haemeck, Israel)] for 14 days, as previously described (Gilhar et al, 2002). D) Four weeks following engraftment, each mouse was injected intra-dermally (i.d.) into the grafted skin lesion, with 1×10^7 activated allogeneic enriched PBMCs from psoriatic patients (FIG. 20). Cells from different psoriasis patients were equally distributed between treatment groups so that each patient is represented in each treatment group. E) On the day of PBMCs injection into the skin grafts, mice were divided randomly into treatment groups (n=9-10 mice per group) and administration of all drugs started (FIG. 20). All tested compounds including the vehicle were given intradermally (intralesional), three times a week, except for dexamethasone which was given topically for 14 consecutive days (Table 3).
F) Twenty eight days after starting the injections and treatment, skin was harvested (FIG. 20). Grafts were analyzed for the following psoriatic parameters by histology: epidermal thickening (acanthosis), suprapapillary epidermal thinning (papillomatosis), hyperkeratosis, parakeratosis, orthokeratosis, agranulosis-hypogranulosis, appearance of neutrophils in the upper spinous layer or in the corneal cell layer—Munro microabscess, regular elongation of rete ridges, angiogenesis, edema and dilated tortuous blood vessels in the dermal papilla and mononuclear cell infiltrate in the papillary dermis. Epidermal thickness was measured as detailed below, and HLA-DR, ICAM-1, Ki-67 and immune infiltrates (anti-CD3 stain) were evaluated by immunohistochemistry (IHC).
The entire skin graft was excised and placed in 10% formal saline overnight. Then, the specimens were place in 70% ethanol and were embedded according to the standard H&E protocol. Histological assessment of the skin grafts was performed by light microscopy and evaluated by two blinded observers [the second observer evaluated random slides (about 25% of all slides) to compare the data obtained by the first observer. […] Epidermal thickness was determined with an ocular micrometer at a minimum of 50 points along the epidermis selected to represent points of maximal and minimal thickness.
Representative grafts were allocated for IHC analysis. […]

B1: C1ORF32 ECD-Fc (SEQ ID NO:42): fusion protein of human C1ORF32 ECD fused to mouse immunoglobulin Fc (human-mouse fusion protein) (protein)
chain: LQVTVPDKKKVAMLFQPTVLRCHFSTSSHQPAVVQWKFKSYCQDRMGESLGMSSTRAQSLSKRNLEWDPYLDCLDSRRTVRVVASKQGSTVTLGDFYRGREITIVHDADLQIGKLMWGDSGLYYCIITTPDDLEGKNEDSVELLVLGRTGLLADLLPSFAVEIMGSENLYFQGSGEPRGPTIKPCPPCKCPAPNLLGGPSVFIFPPKIKDVLMISLSPIVTCVVVDVSEDDPDVQISWFVNNVEVHTAQTQTHREDYNSTLRVVSALPIQHQDWMSGKEFKCKVNNKDLPAPIERTISKPKGSVRAPQVYVLPPPEEEMTKKQVTLTCMVTDFMPEDIYVEWTNNGKTELNYKNTEPVLDSDGSYFMYSKLRVEKKNWVERNSYSCSVVHEGLHNHHTTKSFSRTPGK
modifications: Fusion protein human C1ORF32-ECD fused to mouse IgG2a Fc
- number of transferred CD4+ T cells within the CNS ([1]; study Cgen data, treatment from time of cell transfer): decrease
- number of total or activated transferred T cells in the spleen and cervical lymph nodes ([1]; study MYC48 FACS, day +10): No change
- number of GFP+ and PBSE+ transferred cells in the CNS ([1]; study MYC48 FACS, day +10 post cell transfer): decrease
- NRP+/Helios+ Treg subpopulation in the spleen ([2]; administered concomitantly with anti-TGFβ): increase
- Nrp+/HeliosLo Treg subpopulation in the spleen ([2]; alone or concomitantly with anti-TGFβ): trend of increase
- T cell counts in the spleen (mainly CD4+) ([2]; day 44): increase
- effects on CNS and spleen cell counts following concomitant neutralization of IL-10 or TGF-β ([2]; day 44): not observed
- leukocytes and T cell counts in the CNS (CD45+, CD4+, and CD25+/FoxP3+) ([2]; day 44): pronounced decrease
- Nrp-/HeliosLo Treg subpopulation in the spleen ([2]; treatment alone): upregulation
- infiltration of T cells (CD3 positive cells) [3]: significant reduction of CD3 positive cells
